According to publication PMC9935901 (2023):

Tests used:
[1] = molecular target: Cell-penetrating FaP2 (CP-FaP2); test: SPR
[2] = molecular target: Cell-penetrating FaP3 (CP-FaP3); test: SPR

B1: β-catenin (surface plasmon resonance) (natural protein)
chain: MATQADLMELDMAMEPDRKAAVSHWQQQSYLDSGIHSGATTTAPSLSGKGNPEEEDVDTSQVLYEWEQGFSQSFTQEQVADIDGQYAMTRAQRVRAAMFPETLDEGMQIPSTQFDAAHPTNVQRLAEPSQMLKHAVVNLINYQDDAELATRAIPELTKLLNDEDQVVVNKAAVMVHQLSKKEASRHAIMRSPQMVSAIVRTMQNTNDVETARCTAGTLHNLSHHREGLLAIFKSGGIPALVKMLGSPVDSVLFYAITTLHNLLLHQEGAKMAVRLAGGLQKMVALLNKTNVKFLAITTDCLQILAYGNQESKLIILASGGPQALVNIMRTYTYEKLLWTTSRVLKVLSVCSSNKPAIVEAGGMQALGLHLTDPSQRLVQNCLWTLRNLSDAATKQEGMEGLLGTLVQLLGSDDINVVTCAAGILSNLTCNNYKNKMMVCQVGGIEALVRTVLRAGDREDITEPAICALRHLTSRHQEAEMAQNAVRLHYGLPVVVKLLHPPSHWPLIKATVGLIRNLALCPANHAPLREQGAIPRLVQLLVRAHQDTQRRTSMGGTQQQFVEGVRMEEIVEGCTGALHILARDVHNRIVIRGLNTIPLFVQLLYSPIENIQRVAAGVLCELAQDKEAAEAIEAEGATAPLTELLHSRNEGVATYAAAVLFRMSEDKPQDYKKRLSVELTSSLFRTEPMAWNETADLGLDIGAQGEPLGYRQDDPSYRSFHSGGYGQDALGMDPMMEHEMGGHHPGADYPVDGLPDLGHAQDLMDGLPPGDSNQLAWFDTDL
Kd [1]: 194 nM | Kd [2]: 61.9 nM
